Assay results as given in patent publication US6747136 (KAROLINA INNOVATIONS, dated 2004).

B1: Fab molecule clone L3 (Fab, V domains shown)
VH: EVQLLESGGGVVQPGRSLRLSCAASGFTFKTYGMHWVRQAPGKGLEWVAGISFDGSNQYYADSVKGRFIVSRDNSRDTVFLQMSSLRLEDTAVYYCATEGSPFGSIKGRYYLENWGQGTLVTVSS
VL: AELTQSPATLSVSPGERASLSCRASQSVGNNLAWYQQKPGQAPRLLIYGGNTRATGTPDRFSGSGSGTEFTLTISSLQSEDFAVYFCQHYSTWPLTFGGGTKVEFK
B2: Fab molecule clone 1:5 (Fab, V domains shown)
VH: VQLLEQSGAEVRKPGSSVKVSCKASGGTFSGHVITWVRQAPGQGLEWMGESIPIFGSANYAQNYAQKFRDRVSIIADESTSTSFIELSNLRSDDTAVYYCARDPPRYCSAGRCYPGFFQQWGQGTLVTVSS
VL: AELTQSPGTLSLSPGERATLSCRASQSVSSNYLAWYQQRPGQAPRLLIYGASSRATGIPDRFSGSGSGTDFTLTISRLEPEDFAVYYCQLYGNSRWTFGQGTKVEIK

Assays:
tetanus toxoid [1] = molecular target: T1, tetanus toxoid (UniProt P04958 2-1315); experiment: ELISA, […] (100 ug/ml) […]
T1 construct: also called TT
T1 sequence (P04958 2-457 limits assumed, chain 1 of 2): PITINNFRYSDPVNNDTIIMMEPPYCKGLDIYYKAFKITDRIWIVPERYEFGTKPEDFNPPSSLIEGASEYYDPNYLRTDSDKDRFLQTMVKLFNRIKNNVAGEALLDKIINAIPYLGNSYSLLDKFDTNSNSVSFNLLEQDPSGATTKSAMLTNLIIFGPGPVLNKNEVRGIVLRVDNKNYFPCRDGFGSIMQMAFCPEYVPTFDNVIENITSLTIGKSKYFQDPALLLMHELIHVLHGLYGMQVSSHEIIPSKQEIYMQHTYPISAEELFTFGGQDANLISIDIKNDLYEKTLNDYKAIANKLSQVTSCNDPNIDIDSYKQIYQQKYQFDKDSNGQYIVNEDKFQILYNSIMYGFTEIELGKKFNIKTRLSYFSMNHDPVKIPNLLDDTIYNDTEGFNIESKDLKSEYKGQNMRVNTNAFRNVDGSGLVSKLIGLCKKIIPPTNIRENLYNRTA
T1 sequence (P04958 458-1315 limits assumed, chain 2 of 2): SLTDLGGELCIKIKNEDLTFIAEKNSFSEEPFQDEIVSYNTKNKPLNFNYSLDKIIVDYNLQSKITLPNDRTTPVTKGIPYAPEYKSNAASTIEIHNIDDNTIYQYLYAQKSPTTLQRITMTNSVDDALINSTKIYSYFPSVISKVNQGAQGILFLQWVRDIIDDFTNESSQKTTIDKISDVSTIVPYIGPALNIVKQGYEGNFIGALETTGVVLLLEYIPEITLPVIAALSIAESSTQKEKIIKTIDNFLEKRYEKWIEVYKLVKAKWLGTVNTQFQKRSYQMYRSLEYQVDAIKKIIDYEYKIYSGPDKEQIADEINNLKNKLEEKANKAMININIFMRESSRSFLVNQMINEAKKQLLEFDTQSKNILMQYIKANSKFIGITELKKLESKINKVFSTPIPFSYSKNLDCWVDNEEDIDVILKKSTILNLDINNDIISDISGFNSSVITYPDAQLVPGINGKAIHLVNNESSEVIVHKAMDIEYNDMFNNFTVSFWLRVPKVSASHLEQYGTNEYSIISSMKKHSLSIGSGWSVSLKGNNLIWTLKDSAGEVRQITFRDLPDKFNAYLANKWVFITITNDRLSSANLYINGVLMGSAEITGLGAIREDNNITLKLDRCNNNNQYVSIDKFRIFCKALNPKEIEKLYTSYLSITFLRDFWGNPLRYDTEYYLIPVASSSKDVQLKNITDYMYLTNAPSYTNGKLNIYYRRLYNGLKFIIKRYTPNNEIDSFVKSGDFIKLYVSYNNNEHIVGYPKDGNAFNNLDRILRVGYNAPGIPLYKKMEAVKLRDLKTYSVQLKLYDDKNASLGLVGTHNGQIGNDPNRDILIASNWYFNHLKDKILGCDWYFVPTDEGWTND

tetanus toxoid [2] = molecular target: T1, tetanus toxoid; experiment: ELISA, coated tetanus toxoid 1 ug/ml

Binder	OD405 nm (ELISA reactivity) (tetanus toxoid [1]) [OD405 nm]	binding result (tetanus toxoid [2])
B1	0.313	no binding
B2		no binding
